Test results from the nanobody polyreactivity screen of Harvey et al. (2022).

Test: yeast display, Sf9 membrane polyspecificity reagent, FACS + sequencing; frameworks hold sequencing errors
Method in brief: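 In a synthetic yeast display library (Saccharomyces cerevisiae BJ5465), nanobody expression was induced with galactose for 36–48 hours. FACS gates were set low and high (top ~1%) using anti-HA fluorescence for expression and streptavidin fluorescence for binding of the Sf9 membrane reagent. Each polyreactivity label is drawn from the gate of origin.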

Sequence	polyreactivity (PSR sort gate)
QVQLVESGGGLVQAGGSLRLSCAASGSIFGSYAMGWYRPAPGKERELVAGITYRGSSTYYADSVKGRFTISRDNAKNTVYLQMNSLKPEDTAVYYCAADSVFDEYDYWGQGTQVTVSS	low polyreactivity
QVQLVESGGGLVQAGGSLRLSCAASGSTLLTYTMGWYRQAPGKESELVASITTSGGSTYYADSVKGRFTISRDNAKNTVYLQMNSLKPEDTAVYYWGQGTQVTVSS	low polyreactivity
QVQRVESGGGLVQAGGSLRLSCAASGSIFFDGNAMGWYRQAPGQERELVAAISVSGGSTYYADSVKGRFTISRDNAKNTVYLQMNSLKPEDTAVYYCAKYPSKSYVPGDYWGQGTQVTVSS	low polyreactivity
QVQLVESGGGLVQAGGSLRLSCAASGFTLWLYAMGWSRQAPGKERALVATISYRGDSTYYADSVKGRFTISRDNAKNTVYLQMNSLNPEDTAVYYCARRYTHTGRYYYWGQGTQVTVSS	high polyreactivity
QVQLVESGGGLVQAGVSLRLSCAASGRTFYRYVMGWYRQAPGKERELVAAITPGGSTYADSVKGRFTISRDNAKNTVYLQMNSLKPEDTAVYFCNKRKASSSGYNYWGQGTQVTVSS	low polyreactivity
QVQLVESGGGIVQAGGSLRLSCAASGSTFVSNAMGWYRQAPGKERELVAAITTGGSTYYADSVKGRFTISRDNAKNTVYLQMNSLKPEDTAVYYCAADSVLNWFWGQGTQVTVSS	low polyreactivity
QVQLVESGGGLVQAGGSLRLSCAASGFILSRYAMGWYRPAPGTERELVAAITSSGGSTYYADSVKGRFTISRDNAKNTVYLQMNSLKPEDTAVYYCAADRGRYSYNFWGQGTQVTVSS	high polyreactivity
QVQLVESGGGLVQAGGSLRLSCAASGRIFNANAKGWYRQAPWKERELVAAITYSGGSTYYADSVKGRFTISRDNAKNTVYLQKNSLKPEDTAVYYCNVDYAGPYDYWGQGTQVTVSS	low polyreactivity
QVQLVESGGGLVQAAGSLRLSCAASGSIFVSYAMGWYRPAPWKEREFVATINYSGGSSYYADSVKGRFTISRDNAKNTVYLQMNSLKPEDTAVYYCAARPYHHGYWLNYGYWGQGTQVTVSS	high polyreactivity
QVQLVESGGGLVQAGGSLRLSCAASGSISRYAMGWSRQAPGKERELVAAITRSGGSTHYADSVKGRFTISRDNAKNTVYLQMNSLKPEDTAVYYCATRYYRGVIRYPYDSWGQGTQVTVSS	high polyreactivity
QVQLVESGGGLVQAGGSLRLSCAASGINFGQNAMGWYRQAPGKERELVAAITISVGSTYYADSVKGRFTISRDNAKNTVYLQMNSLKPEDTAVYYCAARRVTWKVIARGYRYGYWGQGTQVTVTS	low polyreactivity
QVQLVESGGGLVQAGGSLRLSCAASGRIFDRNAMGWYRQARGKARELVARIDPGDDTNYADSVKGRFTISRDNAKNKVYLQMNSLQPEDTAVYYCATDPDYVLYRTAYYEYDYWGQGTQVTVSS	low polyreactivity
QVQLVESGGGLVQAGGSLRLSCAASGIIFQYNAMGWYRQAPGKEREFVAAISYGGTSTYYADSVKGRFTISRDNAKNTVYLQMNSLKPEDTAVYYCAADYQGYTPSDGRYYWGQGTQVTVSS	low polyreactivity
QVQLVESGGGLVQAGGRLRLSCAASGRICIIYALGWYRQAPGKEREFVAAITSSGGSTYYADSVKGRFTISRDNAKNTVYLQMNSLTPEDTAVYYCAARVTKLRTSSLRGYWGQGTQVTVSS	high polyreactivity
QVQLVESGGGLVQAGGSLRLSCAASGSTLAPYVKGWYIQAPGTERELVAVISTRTGRTYYADSVKGRFTISRDNAKNTVSLQMNSLKPEDTAVYYCAAAYGWSWYRYDYWGQGTQVTVSS	high polyreactivity
QVQLVESGGGLVQAGGSLRLSCAASGSIFGPYAMGWYRQAPGKERELVAANTWTGGRTYYSDSVKGRFTISRDNAKNTVYLQMNSLKPEDTAVYYCAVRHRYTRAYWGRDYWGQGTQVTVSS	low polyreactivity
QVQLVESGGGLVQAGGSLRLSCAASGSTFARYAMVWYRQAPGKERELVAVIRSGGSTNYADSVKGRFTISRDNAKNTVYLQMNSLKPEDTAGAADQWTIHRWATYGYWGQGTQVTVSS	low polyreactivity
QVQLVESGGGLVQAGGSLRLSCAASGRIFPLYAMGWSRQAPGKERELVAAITSSGGSTYYADSVKGRFTISRDNAKNTVYLQMNSLKPEDTAVYYCAADYSVYWLDYGYWGQGTLVTVSS	low polyreactivity
QVHLVESGGGLVQAGGSLRLSCAASGRTFQWYAMGWYRQAPGKERELVAAIRYSAGSTYYADSVKGRFTISRDNAKNTVYLQMNSLKPEDTAVYYCAAEPYPYGPYYFLWLRYDYWGQGTHVTVSS	low polyreactivity
QVQLVESGGGLVQAGGSLRLSCAASGYIFGHYAMGWSRQAPGKERELVAGITWRGGSTYYADSVKGRFTISRDNAKNTVYLQLNSLKPEDTAVYYCNAQYTQRWPYGLYYEMDYWGQGTQVSVSS	low polyreactivity
QVQLVESGGGLVQAGGSLRLSCAASGSIIWYYAMGWYRQAPGKERELVAAISISGSTYYADSVKGRFTISRDNAKNTVYLQMNSLKPEDTAVYYCAARKFFWRSNYDYWGQGTQVTVSS	low polyreactivity
QVQLVESGGGLVQAGGSLRLSSAATGSTSFQNAMGWYRQAPGKEREFVAAISGSGDRTNYADSVKGRFTISRDNAKNTVYLQMNSLIPEDTAVYYCAAVRGYPPTNYYYWGQGTQVTVSS	high polyreactivity

Sequence	polyreactivity (PSR sort gate)
QVQLVESGGGLVQAGGSLRLSCAASGSILGRYAMGGYRQAPGKERELVASITRRAGTTYYADSVKGRFTISRDNAKNTVYLQKNSLKPEATAVYYCAARAYTNYYYWGQGTQVTVSS	high polyreactivity
QVQLVESGGGLVQAGGSLRLSCAASGRTFVLYTMGWYRQAPGKERELVAVGSTYYADSVKGRFTISRDNAKNTVYLQMNSLKPEDTAVYYCNKPGNYVWRRSWDFDYWGQGTQVTVSS	high polyreactivity
QVQLVESGGGLVQAGGSLRLSCAASGSTFRFYAMGWYRQAPGKERELVAVIRSTGSTYYADSVKGRFTISRDNAKNTVYLQMNSLKPEDTAVYYCAAQNAWWSNGRSYDYWGQGTQVTVSS	low polyreactivity
QVQLVESGGGLVQAGGRLRLSCAASGSIFDSYVMGWYRQAPGKERELVAAITYSGGSTYADSVKGRFTISRDNAKNTVYLEMNSLKPEDTAVYYCAAASYFYLYLLEDYWGQRTQVTVSS	low polyreactivity
QVQIEESGGGLVQAGGSLRLSCAASGRIFSLNVMGWSRQAPRKERELVATIRGRGTSTYYADSVKGRFTISRDNAKNTVYLQMNSLKPEDTAVYYCAASGHGAYGYWGQGTQVTVSS	low polyreactivity
QVQLVESGGGLVQAGGSLRLSCAASGRIFYSYAMGWYRQAPGKERELVAAISSRTGSTYYADSVKGRFTISRDNAKNTVYLQMNSLKPEDTAVYYCAAQSGWLRYYYWGQGTLVTVSS	high polyreactivity
QVQLVESGGGLVQAGGSLRLSCAASGRIFDFNAMGWYRQAPGKEREFVAAIRTSGGDSTYYADSVKGRFTISRDNAKTTVYLQMNSLTPEDTAVYYCAKTVWWYYRYPFDYWGQGTQVTVSS	low polyreactivity
QVQLEESGGGLVQAGVSLRLSCAASGRIFSSNAMGWYRQAPGKERELVAAITYSAGSTYYAVSVKGRFTISRDNAKNTVYLQMNSLKPEDTAVYYCAADSYYDRTIQFEFYARTYDYWGQGTQVTVSS	low polyreactivity
QVQLVESGGGLVQAGGSLRLSCAASGSIFADNTMGWSRQSPGKERELVAAITSSGRTYYADSVKGRFTISRDNAKNTVYLQMNSLKPEDTAVYYCAAVIYFHDYSPYYYWGQGTQVTVSS	high polyreactivity
QVQLVESGGGLVQAGGSLRLSCAASGFTFGTYAMGWYRQAPGKERELVAGITSGDGTYYADSVKGRFTISRDNAKNTVYLQMNSLKPEDTAVYYCAVVHYQQYSWRVYFYPYDYWGQGTQVTVSS	high polyreactivity
QVQLVESGGGLVQAGGSLRLSCAASGRIFGWYAMGWYRQAPGKERELVAAITSSVGRTYYADSVKGRFTISRDNAKNTVYLQMNSLKPEDTAVYYCAKDLYTYYYFEYDYWGQGTQVTVSS	low polyreactivity
QVQLVESGGGLVQAGGSLRLSCAASGIIFGDYAMGWYRQAPGKEMELVAAITWSGGSTYYADSVKGRFTISRDNAKNTVYLQMNSLKPEDTAFYYCNADDDGRVSSTIVEYWGQGTQVTVSS	low polyreactivity
QDQLVESWGGLVQAGGSLRLICASSGSNIGYNAMGWYRPAPVKERELVAAISYSGGSTYYADSVKGRFTISRDNAKNTVYFRMNSLKPEDTAVYYCNKYIRRYLIYGSWGQGSQVTVSS	high polyreactivity
QVQLVESGGGLVQAGGSLRLSCAASGLIFYRNAMGWYRQAPGKERELVAAIRFSTGSTYYADSVKGRFTISRDNAKNTVYLQMNSLKPEDTAVYYCAADRRYYWYNYWGQGTQVNVSS	high polyreactivity
QVQHVESGGGLVQAGGSLRLSCAASGSIFPDNAMGWYRQAPGQERELVAAIDKGTGSTNYADSVTGRFTLSRDNAKNNVYFQMNSLKPEDTAVYYCAKGWLTPRGGAWYDDYWGQGTHVTVSS	low polyreactivity
QVQLVESGGALVQAGGSLRLSCAASGSTFYWNTMGWYRQAPGKERELVASITRGGSTYYADSVKGRFTISRDNAKNTVYLQMNSLKPEDSAVYYCNVLAWSYGYRYYSWGQGTQVTVSS	high polyreactivity
QVQLVESGGGLVQAGGSLRLSCAASGRIFGEYAMGWYSQAPGKERELVASISSGGNTNYADSVKGRFTISRDNAKNTFYLQMNSLKPEDTAVYYCAADDYATPQKMDYWGQGTQVTVSS	high polyreactivity
QVQLVESGGGLVQAGGSLRLSCAASGFTFGFYAMGWYRQAPGEEWELVATISSAGSTTYADSVKGRFTLSRDNAKHTVYLQMNSLKPEETAVYYCATRRWSWPQFRTGDYWGQGTQVTVSS	high polyreactivity
QVQLVESGGVLGQAGGSLRLSCAPSGSLIGGYAMGWYRQAPGKQRELVAAISYRGATTYYADSVKGRFTISRDNSKNTVYFQMNSLKPEDTAVYYCDVAARTRARVLYGYDYGGQGTQVTVSS	low polyreactivity
QVQLVESGGRLVQAGGSLRLSCAASGSILDGNTMGWYRQAPGKEMELVAAITWDGTSTYYADSVKGRFTISRDNAKNTVYLQMNSLKPEDTAVYYCAATKGYSDQSTGYYAYIHYDYWGQGTQVTVSS	low polyreactivity
QVQLVESGGGLVQAGGSLRLSCAASGFIFGWYAMGWYRQAPGKERELVAAISRSGGSTYYADSVKGRFTISRDNAMNTVYLQMNCLKPEDTAVYYCAAQRSYAYEYWGQGTQVTVSS	high polyreactivity
